Experimental data published in the DeepSol protein solubility set.

Assay: soluble on expression in E. coli; label from the status in PepcDB or PDB records

| Sequence | soluble on expression in E. coli |
| --- | --- |
| MEHFDVAIIGLGPAGSALARKLAGKMQVIALDKKHQCGTEGFSKPCGGLLAPDAQRSFIRDGLTLPVDVIANPQIFSVKTVDVAASLTRNYQRSYININRHAFDLWMKSLIPASVEVYHDSLCRKIWREDDKWHVIFRADGWEQHITARYLVGADGANSMVRRHLYPDHQIRKYVAIQQWFAEKHPVPFYSCIFDNAITDCYSWSISKDGYFIFGGAYPMKDGQTRFTTLKEKMSAFQFQFGKAVKSEKCTVLFPSRWQDFVCGKDNAFLIGEAAGFISASSLEGISYALDSAEILRAVFLKQPEKSNAAYWRATHKLRLKLFGKIVKSRCLTAPALRKWIMRSGVAHIPQLKDYPTRFTSPTSRM | not soluble |
| MEHNQLIAMITEAVMEQIRPLPKINQIPVAISNRHVHLSQEDAQTLFGPNYSFKIKKDLSQPGQYACEERVTLVGPKGVIENVRILGPVRPQTQVELSVSDGIKLGITPPVRDSGDLANSAGITLVGPSGSLTLPEGVIAAARHIHMHSTDAARFGVKDRDRVSVTAPGPRGLVFRETLIRVSHNFTLEMHIDIDEANAAALRNQDYVELLLVNHLLP | not soluble |
| MEHTKKFKSLNLHGFDRSTEDYGKRPFVLTAKLLEDQKKAIYGCAFNQYAGIDEEQAVATVGGSFLHMYSVPIDINNIELQWSCNFPTDKSSKVEREESLFTVTWCYDTYEAENDRNPFKVVTGGTLGHIYVIDYVSRKLSNRLRSVGWEINDIRTCPANSNLIVCASSDQSIRIHHIRNEACLIVIGGLECHAGTILSVDWSTDGDFILSCGFDHQLMEWDLSVKQVKEHLERACKALHQDKINVLTQSQDIPYVSKGTMRKSAVSRNIPDKEEDQLLELHRELIPRPSCLLPIYTPSSVSTDMHSDYVDCIRFLIGTNYALSKGCGNEKAIHFWRFGPPKGEVENRIHGNVLRPKSCTTKFRTMNVPSGSAWFIKFAVDPRRRWLVCGGAGGSVMFFDLRNNEETNPTHTCSVGSRTVRQASFSTCGRFLVLVTDEGFVCRFDRVSASVDAKDLFLMSSPTSSKDYSSPKHSFMLTVDSNLQSDKKKTFLNVQSSSSAGSTKHCQIPMSKDEYFETRGKLDSVDVIDQFRQRQQ | not soluble |
| MEIIRPMRVAIVAESFLPNVNGVTNSVLRVLEHLKANGHDALVIAPGARDFEEEIGHYLGFEIVRVPTVRVPLIDSLPIGVPLPSVTSVLREYNPDIIHLASPFVLGGAAAFAARQLRIPAIAIYQTDVAGFSQRYHLAPLATASWEWIKTVHNMCQRTLAPSSMSIDELRDHGINDIFHWARGVDSKRFHPGKRSVALRKSWDPSGAKKIVGFVGRLASEKGVECLAGLSGRSDIQLVIVGDGPEAKYLQEMMPDAIFTGALGGEELATTYASLDLFVHPGEFETFCQAIQEAQASGVPTIGPRAGGPIDLINEGVNGLLLDVVDFKETLPAAAEWILDDSRHSEMCAAAWEGVKDKTWEALCTQLLQHYADVIALSQRIPLTFFGPSAEVAKLPLWVARALGVRTRISIEALEHHHHHH | soluble |
| MEIKTTTTLHRVVEETTKPLGATLVVETDISRKDVNGLARGHLVDGIPLCTPSFYADIAMQVGQYSMQRLRAGHPGAGAIDGLVDVSDMVVDKALVPHGKGPQLLRTTLTMEWPPKAAATTRSAKVKFATYFADGKLDTEHASCTVRFTSDAQLKSLRRSVSEYKTHIRQLHDGHAKGQFMRYNRKTGYKLMSSMARFNPDYMLLDYLVLNEAENEAASGVDFSLGSSEGTFAAHPAHVDAITQVAGFAMNANDNVDIEKQVYVNHGWDSFQIYQPLDNSKSYQVYTKMGQAKENDLVHGDVVVLDGEQIVAFFRGLTLRSVPRGALRVVLQTTVKKADRQLGFKTMPSPPPPTTTM | soluble |
| MEILNQFSQFSPNMEAQGASSIPQPSQDAHEKARQQAENQETAKNGMISQILDQAAMQRLSNLAVAKPEKAQMVEAALINMARRGQLSGKMTDDGLKALMERVSAQTQKATSVKFDRRRNELDSDEELDL | not soluble |
| MEIRLFSGSAHPDLARRVAEALGVPLGKALVDRFPDGEVRVRLLESVRGEDVYLIQPTCPPVNDHLMELLLLADAARRSSAGRINAVIPYFGYARQDKQTEGREPISARLVAGLLERVGVERVIAIDLHAPQIQGFFDIPVDHLSAVRLFARYLREKGYVENAVVVSPDAGRAEEARRLAERLGLPLAMLAKRRLGPRETSVTYVIGDVEGKRPILVDDIVSTGGTIRRGVEALLQAGALPEVVVMATHAVLVGGAKENLAHPAVREVVFTDTIPLKDGGYTVLSTAELLAQAIRHVHTNQSVSALI | soluble |
